From article PMC3319578, “Talin Contains A C-Terminal Calpain2 Cleavage Site Important In Focal Adhesion Dynamics” (PLoS ONE, 2012)
Numbering of substitutions follows the chain as printed. Numbers in names are those of the source.

B1: talin1 2300–2541 polypeptide (C-terminal actin-binding site and dimerisation domain), wild type (domain or fragment, mouse, UniProt P26039 2300-2541, looked up)
chain: DPTVIAENELLGAAAAIEAAAKKLEQLKPRAKPKEADESLNFEEQILEAAKSIAAATSALVKAASAAQRELVAQGKVGAIPANALDDGQWSQGLISAARMVAAATNNLCEAANAAVQGHASQEKLISSAKQVAASTAQLLVACKVKADQDSEAMKRLQAAGNAVKRASDNLVKAAQKAAAFEDQENETVVVKEKMVGGIAQIIAAQEEMLRKERELEEARKKLAQIRQQQYKFLPSELRDEH
notes: Cloned into pET-151/D-TOPO; dimer by gel filtration; also called talin 2300–2541; ABS-DD; source: E. coli, purified (Ni-NTA, TEV cleavage, Resource-Q)
B2: talin1 2300–2541 E2492G mutant (domain or fragment, mouse, UniProt P26039 2300-2541, looked up)
chain: B1 chain with E193G
notes: talin1, mouse, residues 2300–2541 with E2492G; Dimer by gel filtration; also called E2494G (as printed once in the text); source: E. coli, purified (Ni-NTA, TEV cleavage, Resource-Q)

Molecular target: the molecule itself
Assay: SEC; analytical gel filtration, Superdex-75 (10/300), room temperature, 20 mM Tris pH 8.0, 150 mM NaCl, 2 mM DTT, 0.8 ml/min

Row | Protein | stoichiometry N
1 | B1 | 2
2 | B2 | 2
